Assay [1] addresses rabbit muscle G-actin (actin monomers; ATP-G-actin or ADP-G-actin) (rabbit) (UniProt P68135). Description: shift of the apparent critical concentration of pyrene-actin.
The target is the same in assay [2]. The assay is described as above. The source holds these as a separate data set.

Where “and” joins values, the source holds several entries; their conditions need not be identical. Equal values may be shown once. Read-outs that look alike come from different tables or passages of the source.

On to “MBP-CAS-2C (C-terminal half of CAS-2, residues 208-457, fused to maltose-binding protein) (domain or fragment)”, for which the Kd in assay [1] is 1700 nM and 2900 nM; in assay [2] it was 1000 nM and 950 nM.

Turning to “MBP-CAS-2CΔWH2 (C-terminal half of CAS-2 lacking WH2, residues 275-457, fused to maltose-binding protein) (domain or fragment)”, the Kd in assay [1] was 1700 nM and 1200 nM; in assay [2], 3600 nM and 2900 nM.

As for “MBP-CAS-2N (N-terminal half of CAS-2, residues 1-207, fused to maltose-binding protein) (domain or fragment)”, the Kd in assay [1] was 2900 nM and 830 nM.

“MBP-CAS-2 (full-length CAS-2, cyclase-associated protein-2, fused to maltose-binding protein) (natural protein)”: the Kd in assay [1] was 830 nM.

The values above are taken from publication PMC4086254.
